Consider eleven molecules from patent publication US20250206820A1.

The target in the test is ILT3 on target cells (MOLM13, OCI-AML-2, NALM-1, THP-1, MM1S, H929, U226B1 and other lines) (human) (UniProt Q8NHJ6). Put plainly: cell-based or functional assay.
Sequence of ILT3 on target cells (MOLM13, OCI-AML-2, NALM-1, THP-1, MM1S, H929, U226B1 and other lines) (human) (Q8NHJ6 22-448, one chain of several): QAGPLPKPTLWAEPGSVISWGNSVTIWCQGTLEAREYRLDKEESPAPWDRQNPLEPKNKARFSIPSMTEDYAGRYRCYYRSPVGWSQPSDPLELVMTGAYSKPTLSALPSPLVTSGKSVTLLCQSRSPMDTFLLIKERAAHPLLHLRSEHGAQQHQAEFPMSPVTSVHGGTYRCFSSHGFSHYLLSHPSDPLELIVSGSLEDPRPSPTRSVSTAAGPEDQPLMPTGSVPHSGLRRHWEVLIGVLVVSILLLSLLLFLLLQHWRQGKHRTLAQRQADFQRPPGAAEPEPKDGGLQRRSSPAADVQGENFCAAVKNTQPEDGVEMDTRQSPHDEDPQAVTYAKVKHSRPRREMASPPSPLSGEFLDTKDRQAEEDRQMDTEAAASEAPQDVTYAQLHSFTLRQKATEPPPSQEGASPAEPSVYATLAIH

B1: 16C5 Fab coupled with CD3 scFv 1G4 (bispecific antibody, part only; not given: CD3 scFv 1G4, V domains shown, part only)
VH: EVQLQQSGPELVKPGASVKISCKASGYTFTDYNMDWVKQSHGKSLEWIGYIYPSNGGTGYNQKFKSKATLTVDKSSNTAYMELHSLTSEDSAVYYCARVPYYDYLYYYAMDYWGQGTSVTVSS
VL: QIVLSQSPAILSASPGEKVTMACRASSSVSFMHWYQQKPGSSPQPWIYATSNLASGVPARFSGSGSGTSYSLTISRVEAEDAATYYCQQWSTNPYMYTFGGGTKLEIK
Regarding B1, the TDCC, EC50 was determined as 50.1 nM.

B2: 12A12 Fab coupled with CD3 scFv 1G4 (bispecific antibody, part only; not given: CD3 scFv 1G4, V domains shown, part only)
VH: EVQLQQSGPELVKPGASVKISCKASGYTFTDYNMDWVKQSHGKSLEWIGYIYPNNGGTGYNQKFNSKATLTVDKSSSTAYMELHSLTSEDSAVYYCASSPYYDYVGSYAMDYWGQGTSVTVSS
VL: QIVLTQSPAIMSASLGERVTMTCTASSSVSSSYLHWYQQKPGSSPKLWIYSTSNLASGVPARFSGSGSGTSYSLTISSMEAEDAATYYCHQYHRSPRTFGGGTKLEIK
For the molecule B2, the TDCC, EC50 amounted to 251 nM.

B3: 12A12 Fab coupled with CD3 scFv 2B2 (bispecific antibody, part only; not given: CD3 scFv 2B2, V domains shown, part only)
VH: EVQLQQSGPELVKPGASVKISCKASGYTFTDYNMDWVKQSHGKSLEWIGYIYPNNGGTGYNQKFNSKATLTVDKSSSTAYMELHSLTSEDSAVYYCASSPYYDYVGSYAMDYWGQGTSVTVSS
VL: QIVLTQSPAIMSASLGERVTMTCTASSSVSSSYLHWYQQKPGSSPKLWIYSTSNLASGVPARFSGSGSGTSYSLTISSMEAEDAATYYCHQYHRSPRTFGGGTKLEIK
Molecule B3 registered a TDCC, EC50 of 3.16 nM and a TNF-α, EC50 (nM), cytokine release in the TDCC co-culture of 2510 nM.

B4: 16C5 Fab coupled with CD3 scFv 2B2 (bispecific antibody, part only; not given: CD3 scFv 2B2, V domains shown, part only)
VH: EVQLQQSGPELVKPGASVKISCKASGYTFTDYNMDWVKQSHGKSLEWIGYIYPSNGGTGYNQKFKSKATLTVDKSSNTAYMELHSLTSEDSAVYYCARVPYYDYLYYYAMDYWGQGTSVTVSS
VL: QIVLSQSPAILSASPGEKVTMACRASSSVSFMHWYQQKPGSSPQPWIYATSNLASGVPARFSGSGSGTSYSLTISRVEAEDAATYYCQQWSTNPYMYTFGGGTKLEIK
Consider B4, for which the TDCC, EC50 worked out at 3.16 nM and the TNF-α, EC50 (nM), cytokine release in the TDCC co-culture is 398 nM.

B5: 3A3 Fab coupled with CD3 scFv 2B2 (bispecific antibody, part only; not given: CD3 scFv 2B2, V domains shown, part only)
VH: QVQLKESGPGLVAPSQSLSITCTVSGFSLTSYGVHWVRQPPGKGLEWLGVIWPGGTINYNSALMSRLSISKDNSKSQVFLKLNSLQTDDTAMYYCASDKYDGGWFAYWGQGTLVTVSA
VL: DIVMTQSQKFMSTSVGDRVSITCKASQNVRTAVAWYQQKPGQSPEALIYLASNRHTGVPDRFTGSGSGTDFSLSISNVQSEDLADYFCLQHLNYPLTFGSGTKLEIK
The molecule B5 yielded a TDCC, EC50 of 0.4 nM and a TNF-α, EC50 (nM), cytokine release in the TDCC co-culture of 79.4 nM.

B6: 3A3 Fab coupled with CD3 scFv 1G4 (bispecific antibody, part only; not given: CD3 scFv 1G4, V domains shown, part only)
VH: QVQLKESGPGLVAPSQSLSITCTVSGFSLTSYGVHWVRQPPGKGLEWLGVIWPGGTINYNSALMSRLSISKDNSKSQVFLKLNSLQTDDTAMYYCASDKYDGGWFAYWGQGTLVTVSA
VL: DIVMTQSQKFMSTSVGDRVSITCKASQNVRTAVAWYQQKPGQSPEALIYLASNRHTGVPDRFTGSGSGTDFSLSISNVQSEDLADYFCLQHLNYPLTFGSGTKLEIK
On to B6, for which the TDCC, EC50 is 50.1 nM.

B7: Hz45G10 Fab coupled with CD3 scFv 1G4 (bispecific antibody, part only; not given: CD3 scFv 1G4, V domains shown, part only)
VH: EVQLVESGGGLVQPGGSLRLSCAASGFTFSDYGMHWVRQAPGKGLEWVAYIFSGSSTIYYADTVKGRFTISRDNAKNSLYLQMNSLRAEDTAVYYCARADGRGAMDYWGQGTLVTVSS
VL: DIQMTQSPSSLSASVGDRVTITCRASQDISKFLNWYQQKPGKAPKLLIYYTSRLHSGVPSRFSGSGSGTDFTFTISSLQPEDIATYFCQQGNTLPWTFGGGTKLEIK
B7: the TDCC, EC50 amounted to 1.26 nM.

B8: 53F10 Fab coupled with CD3 scFv 2B2 (bispecific antibody, part only; not given: CD3 scFv 2B2, V domains shown, part only)
VH: EVQVVESGGGLVKPGGSLKLSCAASGFTFSDYGMHWVRQAPEKGLEWVAYISTGIITVYYADTVKGRFTMSRDNAKNTLFLQMTSLRSEDTAIYYCARADGRGAMDYWGQGTSVIVSS
VL: DIQMTQTTSSLSASLGDRVTISCRASQDISNFLNWYQQKPDGTVTLLIYYTSRLHSGVPSRFSGSGSGTDYSLTISNLEQEDFATYFCQQGNTLPWTFGGGTKLEIK
B8: the TDCC, EC50 amounted to 0.013 nM and the TNF-α, EC50 (nM), cytokine release in the TDCC co-culture was determined as 2 nM.

B9: 53F10 Fab coupled with CD3 scFv 1G4 (bispecific antibody, part only; not given: CD3 scFv 1G4, V domains shown, part only)
VH: EVQVVESGGGLVKPGGSLKLSCAASGFTFSDYGMHWVRQAPEKGLEWVAYISTGIITVYYADTVKGRFTMSRDNAKNTLFLQMTSLRSEDTAIYYCARADGRGAMDYWGQGTSVIVSS
VL: DIQMTQTTSSLSASLGDRVTISCRASQDISNFLNWYQQKPDGTVTLLIYYTSRLHSGVPSRFSGSGSGTDYSLTISNLEQEDFATYFCQQGNTLPWTFGGGTKLEIK
The molecule B9 returned a TDCC, EC50 of 2 nM.

B10: 48A6 Fab coupled with CD3 scFv 2B2 (bispecific antibody, part only; not given: CD3 scFv 2B2, V domains shown, part only)
VH: EVQLVESGGDLMKPGGSLKLSCAASGFTFSSYGMSWVRQTPDKRLEWVATISSGGTYTFYPDSVKGRFTISRDNAKNTLYLQMSSLKSEDTAMYYCARRGWLLHYYAMDYWGQGTSVTVSS
VL: NIVLTQSPASLAVSLGQRATISCRPSESVDSFGNSFMHWFQQKPGQPPKLLIYLSSKLESGVPARFSGSGSRTDFTLTIDPVEADDAATYYCQQHNEDPFTFGSGTKLEIK
B10 registered a TDCC, EC50 of 0.025 nM and a TNF-α, EC50 (nM), cytokine release in the TDCC co-culture of 2.51 nM.

B11: 48A6 Fab coupled with CD3 scFv 1G4 (bispecific antibody, part only; not given: CD3 scFv 1G4, V domains shown, part only)
VH: EVQLVESGGDLMKPGGSLKLSCAASGFTFSSYGMSWVRQTPDKRLEWVATISSGGTYTFYPDSVKGRFTISRDNAKNTLYLQMSSLKSEDTAMYYCARRGWLLHYYAMDYWGQGTSVTVSS
VL: NIVLTQSPASLAVSLGQRATISCRPSESVDSFGNSFMHWFQQKPGQPPKLLIYLSSKLESGVPARFSGSGSRTDFTLTIDPVEADDAATYYCQQHNEDPFTFGSGTKLEIK
Molecule B11 returned a TDCC, EC50 of 0.5 nM.
